T1: KaiC-R468C (Synechococcus elongatus, UniProt Q79PF4 1-519, R468C)
T1 sequence: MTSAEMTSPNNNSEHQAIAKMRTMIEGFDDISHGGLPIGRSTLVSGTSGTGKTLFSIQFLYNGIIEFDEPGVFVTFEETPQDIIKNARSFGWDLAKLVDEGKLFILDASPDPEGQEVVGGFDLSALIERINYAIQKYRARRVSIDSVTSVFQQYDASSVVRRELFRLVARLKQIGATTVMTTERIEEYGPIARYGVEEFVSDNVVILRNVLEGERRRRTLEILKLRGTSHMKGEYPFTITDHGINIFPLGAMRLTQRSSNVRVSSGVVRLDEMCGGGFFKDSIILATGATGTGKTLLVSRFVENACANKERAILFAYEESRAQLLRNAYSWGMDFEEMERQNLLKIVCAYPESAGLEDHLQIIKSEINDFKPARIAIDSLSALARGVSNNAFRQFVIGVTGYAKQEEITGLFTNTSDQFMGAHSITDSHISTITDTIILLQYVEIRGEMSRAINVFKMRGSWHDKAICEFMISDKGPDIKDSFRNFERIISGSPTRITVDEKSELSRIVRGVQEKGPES


Tests used:
cryo-EM structure = biological target: the molecule itself; test: cryo-EM structure
KaiC-R468C = biological target: T1, KaiC-R468C; test: native gel or EMSA

binding result (KaiC-R468C)	Binder	stoichiometry N (cryo-EM structure)
	KaiC-Δ489 (C-terminally truncated form of S. elongatus KaiC) (domain or fragment, Synechococcus elongatus, UniProt Q79PF4 1-489, looked up, persistently phosphorylated (hyper-phosphorylated); sites not determined for this sample) MTSAEMTSPNNNSEHQAIAKMRTMIEGFDDISHGGLPIGRSTLVSGTSGTGKTLFSIQFLYNGIIEFDEPGVFVTFEETPQDIIKNARSFGWDLAKLVDEGKLFILDASPDPEGQEVVGGFDLSALIERINYAIQKYRARRVSIDSVTSVFQQYDASSVVRRELFRLVARLKQIGATTVMTTERIEEYGPIARYGVEEFVSDNVVILRNVLEGERRRRTLEILKLRGTSHMKGEYPFTITDHGINIFPLGAMRLTQRSSNVRVSSGVVRLDEMCGGGFFKDSIILATGATGTGKTLLVSRFVENACANKERAILFAYEESRAQLLRNAYSWGMDFEEMERQNLLKIVCAYPESAGLEDHLQIIKSEINDFKPARIAIDSLSALARGVSNNAFRQFVIGVTGYAKQEEITGLFTNTSDQFMGAHSITDSHISTITDTIILLQYVEIRGEMSRAINVFKMRGSWHDKAIREFMISDKGPDIKDSFRNFERI	6
binds	wild-type Synechococcus elongatus KaiB (natural protein, UniProt Q79PF5 1-102, looked up) MSPRKTYILKLYVAGNTPNSVRALKTLKNILEVEFQGVYALKVIDVLKNPQLAEEDKILATPTLAKVLPLPVRRIIGDLSDREKVLIGLDLLYGELQDSDDF	

— paper PMC3940072 (Journal of molecular biology, 2013)
